Source: patent US20130177981A1 (WISCONSIN ALUMNI RESEARCH FOUNDATION, published 2013)
Where two headings read alike, the source gives them in different places. [ ]: non-standard residue; d: D form. APC = trans-3-aminopyrrolidine-4-carboxylic acid; ACPC = trans-2-aminocyclopentanecarboxylic acid; β3hT = C[C@@H](O)[C@H](N)CC(=O)O; β3hE = N[C@@H](CCC(=O)O)CC(=O)O

B1: chimeric CHR α/β-peptide 8 (peptide)
peptide: Ac-TTWEAWDRAIAEYA[ACPC]RIE[ACPC]LI[APC]AAQ[β3hE]QQ[β3hE]KNE[ACPC]AL[APC]EL-NH2
modifications: not fully specified
notes: Made from 7 by replacing two β3-hArg residues with APC
B2: chimeric α+α/β foldamer 13 (peptide)
peptide: Ac-TTWEAWDRAIA[β3hE]YA[ACPC]RIE[ACPC]LI[APC]AAQ[β3hE]QQ[β3hE]KNE[ACPC]AL[APC]EL-NH2
modifications: not fully specified
notes: the difference must lie in β3-residues whose bold type is lost; also called compound 13; peptide 13

Columns and labels:
[1] = target: T1, gp41-5 (HIV); test: competition FP; displacement of Flu-C38 from gp41-5
T1 construct: also called gp41-5 protein construct; five-helix bundle protein

[2] = target: T1, gp41-5; test: as above; remark: listed apart in the source
Protocol: Competition fluorescence polarization assays were conducted in black 96-well plates. […] A second stock plate was prepared containing serial dilutions of peptide inhibitors in DMSO. The peptide stock solutions were transferred to the assay plate (1 μL per well). […] All experimental conditions were carried out in duplicate, and each peptide was assayed in 2-3 independent experiments. Data analysis was carried out in GraphPad Prism. Raw mP data from each experiment were fit to a sigmoidal dose response and normalized to the resulting parameters for the top and bottom of the curve. All experiments included at least one compound showing complete inhibition at the highest concentrations tested. Normalized data from multiple independent runs of the each oligomer were combined and globally fit to an exact analytical expressions for FP competitive binding with Kᵢ as the only floating parameter.

Binder | Ki [1] | Ki [2]
Ac-[β3hT]TWE[ACPC]WD[APC]AIA[β3hE]YAARIEALIRAAQ[β3hE]QQ[β3hE]KNE[ACPC]AL[APC]EL-NH2 (not fully specified, also called compound 14) [chimeric α+α/β foldamer 14] | 1.4 nM | –
B1 | – | 0.3 nM
B2 | 0.8 nM | –
Ac-[β3hT]TWE[ACPC]WD[APC]AIA[β3hE]YA[ACPC]RIE[ACPC]LI[APC]AAQEQQEKNEAALREL-NH2 (not fully specified, also called compound 15) [chimeric α+α/β foldamer 15] | 0.2 nM | –
Ac-TTWEAWD[APC]AIA[β3hE]YA[ACPC]RIE[ACPC]LI[APC]AAQ[β3hE]QQ[β3hE]KNE[ACPC]AL[APC]EL-NH2 (not fully specified, also called compound 12; peptide 12) [chimeric α+α/β foldamer 12] | 8 nM | –
